Results reported in patent publication US20220017612A1.
Where two headings read alike, the source gives them in different places. Blank lines part the entries; values can stand above or below the binder they belong to.

Key:
[1] = target: fusion protein of a human IgG1 Fc domain and human LAP-TGFβ1 (human) (UniProt P01137); assay: SPR (Biacore T200), antigen-Fc captured, 1:1 model
[2] = target: fusion protein of a human IgG1 Fc domain and cynomolgus monkey LAP-TGFβ1 (human; cynomolgus monkey); assay: SPR (Biacore T200), antigen-Fc captured, 1:1 model
[3] = target: fusion protein of a human IgG1 Fc domain and rat LAP-TGFβ1 (human; rat) (UniProt P17246); assay: SPR (Biacore T200), antigen-Fc captured, 1:1 model
Chain of fusion protein of a human IgG1 Fc domain and rat LAP-TGFβ1 (human; rat) (P17246 30-390 limits assumed): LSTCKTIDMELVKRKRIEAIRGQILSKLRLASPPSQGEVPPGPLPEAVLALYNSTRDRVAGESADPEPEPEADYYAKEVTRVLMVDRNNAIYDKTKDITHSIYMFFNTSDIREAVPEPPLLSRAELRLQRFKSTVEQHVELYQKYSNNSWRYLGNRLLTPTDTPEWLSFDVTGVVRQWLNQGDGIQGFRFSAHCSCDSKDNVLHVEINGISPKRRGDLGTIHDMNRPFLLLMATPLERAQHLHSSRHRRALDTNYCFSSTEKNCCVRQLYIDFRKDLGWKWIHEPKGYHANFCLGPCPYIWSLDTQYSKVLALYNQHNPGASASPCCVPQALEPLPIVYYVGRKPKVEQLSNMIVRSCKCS

[4] = target: fusion protein of a human IgG1 Fc domain and mouse LAP-TGFβ1 (human; mouse) (UniProt P04202); assay: SPR (Biacore T200), antigen-Fc captured, 1:1 model
Chain of fusion protein of a human IgG1 Fc domain and mouse LAP-TGFβ1 (human; mouse) (P04202 30-390 limits assumed): as the sequence (P17246 30-390 limits assumed) above, with D93E, T99S, F131L, T134S, V202K counted along it

[5] = target: fusion protein of a human IgG1 Fc domain and human LAP-TGFβ1 (human) (UniProt P01137); assay: SPR (Biacore T200), antigen-Fc captured, 1:1 model; remark: listed apart in the source
[6] = target: human-chicken LAP-TGFβ1 chimera #2 on HT1080 cells (human/chicken chimera); assay: flow cytometry, transduced HT1080 cells
Chain of human-chicken LAP-TGFβ1 chimera #2 on HT1080 cells (human/chicken chimera) (chain, as listed by the source mutant limits assumed): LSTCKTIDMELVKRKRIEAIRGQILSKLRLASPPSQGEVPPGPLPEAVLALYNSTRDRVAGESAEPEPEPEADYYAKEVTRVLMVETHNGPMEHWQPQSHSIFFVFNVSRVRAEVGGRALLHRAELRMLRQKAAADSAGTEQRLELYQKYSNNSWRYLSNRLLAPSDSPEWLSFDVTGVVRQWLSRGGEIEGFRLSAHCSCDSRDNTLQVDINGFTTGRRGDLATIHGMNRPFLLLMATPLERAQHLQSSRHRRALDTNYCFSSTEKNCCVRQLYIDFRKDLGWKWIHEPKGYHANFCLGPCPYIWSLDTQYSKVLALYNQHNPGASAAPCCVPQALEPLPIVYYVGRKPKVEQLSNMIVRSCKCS

[7] = target: human-chicken LAP-TGFβ1 chimera #1 on HT1080 cells (human/chicken chimera); assay: flow cytometry, transduced HT1080 cells
Chain of human-chicken LAP-TGFβ1 chimera #1 on HT1080 cells (human/chicken chimera) (chain, as listed by the source mutant limits assumed): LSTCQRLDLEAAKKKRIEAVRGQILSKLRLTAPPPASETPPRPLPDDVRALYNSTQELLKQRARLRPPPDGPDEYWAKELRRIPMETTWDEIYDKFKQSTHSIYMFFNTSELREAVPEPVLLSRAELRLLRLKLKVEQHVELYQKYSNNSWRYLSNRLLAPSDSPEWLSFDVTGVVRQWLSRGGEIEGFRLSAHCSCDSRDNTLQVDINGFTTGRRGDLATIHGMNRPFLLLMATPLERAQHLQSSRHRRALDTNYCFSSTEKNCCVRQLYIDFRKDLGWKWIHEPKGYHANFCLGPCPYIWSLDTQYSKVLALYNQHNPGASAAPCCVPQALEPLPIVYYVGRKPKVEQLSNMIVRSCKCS

Chain of fusion protein of a human IgG1 Fc domain and human LAP-TGFβ1 (human) (P01137 30-390 limits assumed): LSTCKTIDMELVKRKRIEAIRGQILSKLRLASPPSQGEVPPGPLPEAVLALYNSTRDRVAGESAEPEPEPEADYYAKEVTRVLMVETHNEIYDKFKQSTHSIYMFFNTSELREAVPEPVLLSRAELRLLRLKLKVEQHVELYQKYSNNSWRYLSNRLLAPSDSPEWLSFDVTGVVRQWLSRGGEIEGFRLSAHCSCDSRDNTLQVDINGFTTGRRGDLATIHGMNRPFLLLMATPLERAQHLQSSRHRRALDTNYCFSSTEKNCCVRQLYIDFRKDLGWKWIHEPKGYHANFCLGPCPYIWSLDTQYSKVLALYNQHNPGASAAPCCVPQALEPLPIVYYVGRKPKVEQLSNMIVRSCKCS

Kd [1]: 40.8 nM
koff [1]: 0.08 s⁻¹
kon [1]: 1.96e+06 M⁻¹ s⁻¹
Kd [2]: 60.3 nM
koff [2]: 0.095 s⁻¹
kon [2]: 1.58e+06 M⁻¹ s⁻¹
Kd [3]: 59.4 nM
koff [3]: 0.106 s⁻¹
kon [3]: 1.79e+06 M⁻¹ s⁻¹
Kd [4]: 48.3 nM
koff [4]: 0.079 s⁻¹
kon [4]: 1.64e+06 M⁻¹ s⁻¹
Kd [5]: 49.5 nM
koff [5]: 0.0939 s⁻¹
kon [5]: 1.91e+06 M⁻¹ s⁻¹
B1: humanized 20E6 F(ab′) binding protein (Fab, V domains shown)
VH: EVQLVQSGAEVKKPGASVKVSCKASGYTFTSYWMHWVRQAPGQGLEWMGRIDPQSGGIKYAQKFQGRATLTVDTSTSTAYMELSRLRSDDTAVYYCARWDYGGYFDVWGQGTLVTVSS
VL: DIQMTQSPSSLSASVGDRVTITCRASQDITNYLNWYQQKPGKAVKLLIYYTSRLHSGVPSRFSGSGSGTDYTLTISSLQPEDFATYFCQQGDTLPWTFGQGTKLEIKR

% GFP+/APC+ cells [6]: 0.2%
% GFP+/APC+ cells [7]: 0.2%
B2: 28G11_(hyb) (antibody, mouse IgG2b, kappa, V domains shown)
VH: EVKLVESGGGLVQPGGSLSLSCAASGFTFTDYYMSWVRQPPGKALEWLGFIRNKPNGYTTEYSASVKGRFTISRDNSQSILYLQMNVLRAEDSATYYCARYTGGGYFDYWGQGTTLTVSS
VL: DIQMTQTTSSLSASLGDRLTISCRASQDISNYLNWYQQKPDGTVKLLIYYTSRLHSGVPSRFSGSGSGTDYSLTISNLEQADIATYFCQQGDTLPWTFGGGTKLEIKR
